Measurements from US20100310509A1.

Molecular target: OSMR:gp130 receptor complex on A375 melanoma cells (UniProt Q99650)
Assay: cell-based or functional assay

OSMR:gp130 receptor complex on A375 melanoma cells, sequence (Q99650 28-979 limits assumed, chain 1 of 2): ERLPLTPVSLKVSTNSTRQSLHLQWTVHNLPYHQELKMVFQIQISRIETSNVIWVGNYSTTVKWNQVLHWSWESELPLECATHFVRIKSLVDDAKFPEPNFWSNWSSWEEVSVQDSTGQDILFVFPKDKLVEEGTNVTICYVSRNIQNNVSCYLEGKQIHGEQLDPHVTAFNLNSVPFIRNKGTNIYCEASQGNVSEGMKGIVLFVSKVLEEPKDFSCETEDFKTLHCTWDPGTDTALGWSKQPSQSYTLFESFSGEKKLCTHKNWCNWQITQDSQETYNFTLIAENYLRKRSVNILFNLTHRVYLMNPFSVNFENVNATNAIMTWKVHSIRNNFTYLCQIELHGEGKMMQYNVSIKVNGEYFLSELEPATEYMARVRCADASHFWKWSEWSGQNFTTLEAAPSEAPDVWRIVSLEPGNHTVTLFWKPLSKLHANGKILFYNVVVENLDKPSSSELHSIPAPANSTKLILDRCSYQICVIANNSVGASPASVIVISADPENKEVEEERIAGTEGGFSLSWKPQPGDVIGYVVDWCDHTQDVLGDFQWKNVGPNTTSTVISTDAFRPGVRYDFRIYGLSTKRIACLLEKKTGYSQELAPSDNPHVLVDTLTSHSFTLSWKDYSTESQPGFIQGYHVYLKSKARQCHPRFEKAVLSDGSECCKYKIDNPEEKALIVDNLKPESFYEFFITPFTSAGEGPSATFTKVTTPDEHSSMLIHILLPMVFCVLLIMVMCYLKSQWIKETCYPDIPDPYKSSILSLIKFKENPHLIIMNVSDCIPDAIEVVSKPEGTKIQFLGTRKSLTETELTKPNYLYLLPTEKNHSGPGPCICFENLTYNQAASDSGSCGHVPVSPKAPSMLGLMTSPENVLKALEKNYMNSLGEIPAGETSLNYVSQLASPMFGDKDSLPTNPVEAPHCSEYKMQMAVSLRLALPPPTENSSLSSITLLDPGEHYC
OSMR:gp130 receptor complex on A375 melanoma cells, sequence (P40189 23-918 limits assumed, chain 2 of 2, further chain): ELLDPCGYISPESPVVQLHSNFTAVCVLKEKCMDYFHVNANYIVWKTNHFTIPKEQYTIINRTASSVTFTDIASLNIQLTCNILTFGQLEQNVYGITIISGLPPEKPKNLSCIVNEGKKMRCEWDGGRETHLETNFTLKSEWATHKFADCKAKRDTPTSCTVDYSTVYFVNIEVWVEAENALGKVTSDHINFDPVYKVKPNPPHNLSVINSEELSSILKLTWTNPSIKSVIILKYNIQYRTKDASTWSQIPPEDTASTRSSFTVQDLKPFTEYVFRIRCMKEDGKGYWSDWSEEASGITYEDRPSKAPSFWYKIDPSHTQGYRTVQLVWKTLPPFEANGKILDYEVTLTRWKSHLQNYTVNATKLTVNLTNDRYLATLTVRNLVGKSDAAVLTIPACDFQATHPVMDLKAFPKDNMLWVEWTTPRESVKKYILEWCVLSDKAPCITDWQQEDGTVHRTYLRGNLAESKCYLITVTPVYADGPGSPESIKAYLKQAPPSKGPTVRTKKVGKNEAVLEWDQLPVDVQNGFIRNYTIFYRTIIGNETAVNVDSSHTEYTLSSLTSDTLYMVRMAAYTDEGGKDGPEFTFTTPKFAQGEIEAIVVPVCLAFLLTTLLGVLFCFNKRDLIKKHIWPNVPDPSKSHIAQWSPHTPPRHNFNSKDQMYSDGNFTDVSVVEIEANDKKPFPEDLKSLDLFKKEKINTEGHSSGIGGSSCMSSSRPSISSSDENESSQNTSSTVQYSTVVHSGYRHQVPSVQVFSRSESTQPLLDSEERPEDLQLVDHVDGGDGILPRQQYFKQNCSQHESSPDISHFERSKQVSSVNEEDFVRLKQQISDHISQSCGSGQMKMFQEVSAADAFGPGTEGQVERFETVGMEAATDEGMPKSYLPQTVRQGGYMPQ

concentration that suppresses A375 melanoma cell proliferation by ~50%: 20 ng/mL | concentration that suppresses A375 melanoma cell proliferation by ~90%: 50 ng/mL
Substance: OSM-WT ('AGA' modified human Oncostatin M, referred to as wild-type OSM) (from UniProt P13725 26-217) (ligand)
